# Measured values reported in PMC8849274 (Oncotarget, 2022).
# Tests used:
# Assay type in all cases: in vivo
# [1] = Small animal PET/CT imaging, BxPC-3 tumors; conditions: female, mouse, tumor (BxPC-3 xenograft), iv, total radioactivity, athymic nude mice bearing BxPC-3 tumors, 3.7 MBq i.v., without blocking, n = 3, read-out: SUVmax of tumors
# Description: BxPC-3 cells (5 × 10^6) were inoculated in the right shoulder of female athymic nude mice 3–4 weeks before PET imaging sessions. All the experiments involving animals followed the Guidelines for Care and Use of Research Animals established by the Division of Comparative Medicine and the Animal Studies Committee of Washington University School of Medicine under protocol #20–0214. […] Mice were imaged with CT followed by static PET scans at 1, 4, and 24 h after tracer administration on an Inveon small animal PET/CT scanner (Siemens Medical Solutions, Malvern, PA, USA). Static images were collected for 20 min and reconstructed with the maximum a posteriori (MAP) reconstruction algorithm using the Inveon Reseach Workstation image display software (Siemens). Regions of interest (ROI) were selected based on co-registered anatomical CT images, and the associated radioactivity was measured using the Inveon software. The maximum standard uptake value (SUV) was calculated as the highest regional radioactivity concentration (nCi/cc) × animal weight (g)/decay-corrected amount of injected dose (nCi).
# [2] = Biodistribution in mice bearing CaSki xenografts; conditions: female, athymic nude, mouse, iv, total radioactivity; for tissue uptake at 1 h: 1 h p.i.; for tissue uptake at 24 h: 24 h p.i.
# Excerpt: (§1) Animals were supplied by Charles River Laboratories (Wilmington, MA, USA), and were handled in compliance with the Guidelines for Care and Use of Research Animals established by the Division of Comparative Medicine and the Animal Studies Committee of Washington University School of Medicine under protocol #20–0214. Female athymic nude mice were inoculated on the right flank with 10 × 10^6 CaSki or 5 × 10^6 BxPC-3 cells. Tumors were allowed to grow until they approached approximately 100 mm^3 in volume. Radiolabeled peptides were diluted in saline to a dose of 0.37 MBq (10 μCi) per 100 μl. […] For blocking experiments, non-PEGylated peptide (100 μg in 100 μL saline) was injected ten minutes before radiotracer. Blood, lung, liver, spleen, kidney, muscle, heart, bone, and tumor were harvested. The amount of radioactivity in each organ was determined by gamma counting, and the percent injected dose per gram of tissue (% ID/g) was calculated.
# [3] = Biodistribution in mice bearing BxPC-3 xenografts; conditions: female, athymic nude, mouse, iv, total radioactivity, BxPC-3 tumor-bearing mice; for tissue uptake at 1 h: 1 h p.i.; for tissue uptake at 24 h: 24 h p.i.
# Excerpt: as §1
compound,measurement,setting,value
"CC(C)C[C@H](NC(=O)[C@H](CC(=O)O)NC(=O)CNC(=O)[C@H](CCCNC(=N)N)NC(=O)[C@H](CC(C)C)NC(=O)[C@H](CC(N)=O)NC(=O)[C@@H]1CCCN1C(=O)[C@@H](NC(=O)[C@H](C)NC(=O)[C@H](CC(N)=O)NC(=O)CCOCCOCCOCCOCCOCCOCCOCCOCCOCCOCCOCCOCCOCCOCCOCCOCCOCCOCCOCCOCCOCCOCCOCCOCCOCCOCCOCCOCCNC(=O)CN1CCN(CC(=O)O)Cc2cccc(n2)CN(CC(=O)O)CC1)C(C)C)C(=O)N[C@@H](CCC(N)=O)C(=O)N[C@H](C(=O)N[C@@H](CC(C)C)C(=O)N[C@@H](C)C(=O)N[C@@H](CCC(N)=O)C(=O)N[C@@H](CCCCN)C(=O)N[C@H](C(=O)N[C@@H](C)C(=O)N[C@@H](CCCNC(=N)N)C(=O)N[C@H](C(=O)NCCOCCOCCOCCOCCOCCOCCOCCOCCOCCOCCOCCOCCOCCOCCOCCOCCOCCOCCOCCOCCOCCOCCOCCOCCOCCOCCOCCOCCC(N)=O)[C@@H](C)O)C(C)C)C(C)C [[^64Cu]Cu-PCTA-(PEG28)2-A20FMDV2, metal not drawn]",SUV at 1 h,[1]; PET at 1 h,0.46 ± 0.04 SUV
same,SUV at 4 h,[1]; PET at 4 h,0.54 ± 0.05 SUV
same,SUV at 24 h,[1]; PET at 24 h,0.74 ± 0.21 SUV
same,tissue uptake at 1 h,"[2]; blood, CaSki tumor-bearing mice, 0.37 MBq i.v., gamma counting, mean, n = 4, read-out: Uptake in Blood",0.54 %ID/g
same,tissue uptake at 24 h,"[2]; blood, CaSki tumor-bearing mice, 0.37 MBq i.v., read-out: Radioactivity remaining in the blood",0.53 ± 0.1 %ID/g
same,tissue uptake at 1 h,"[2]; blood, CaSki tumor-bearing mice, non-PEGylated A20FMDV2 100 μg injected 10 min before radiotracer, read-out: Uptake in Blood, 1 h Block",0.76 %ID/g
same,tissue uptake at 1 h,"[2]; bone, CaSki tumor-bearing mice, 0.37 MBq i.v., gamma counting, mean, n = 4, read-out: Uptake in Bone",0.54 %ID/g
same,tissue uptake at 1 h,"[2]; bone, CaSki tumor-bearing mice, non-PEGylated A20FMDV2 100 μg injected 10 min before radiotracer, read-out: Uptake in Bone, 1 h Block",0.39 %ID/g
same,tissue uptake at 1 h,"[2]; heart, CaSki tumor-bearing mice, 0.37 MBq i.v., gamma counting, mean, n = 4, read-out: Uptake in Heart",2.46 %ID/g
same,tissue uptake at 1 h,"[2]; heart, CaSki tumor-bearing mice, non-PEGylated A20FMDV2 100 μg injected 10 min before radiotracer, read-out: Uptake in Heart, 1 h Block",0.55 %ID/g
same,tissue uptake at 1 h,"[2]; kidney, CaSki tumor-bearing mice, 0.37 MBq i.v., gamma counting, mean, n = 4, read-out: Uptake in Kidney",114 ± 38.3 %ID/g
same,tissue uptake at 24 h,"[2]; kidney, CaSki tumor-bearing mice, 0.37 MBq i.v., read-out: Uptake in Kidney",24.4 ± 6.54 %ID/g
same,tissue uptake at 1 h,"[2]; kidney, CaSki tumor-bearing mice, non-PEGylated A20FMDV2 100 μg injected 10 min before radiotracer, read-out: Uptake in Kidney, 1 h Block",43.6 %ID/g
same,tissue uptake at 1 h,"[2]; liver, CaSki tumor-bearing mice, 0.37 MBq i.v., gamma counting, mean, n = 4, read-out: Uptake in Liver",6.81 %ID/g
same,tissue uptake at 1 h,"[2]; liver, CaSki tumor-bearing mice, non-PEGylated A20FMDV2 100 μg injected 10 min before radiotracer, read-out: Uptake in Liver, 1 h Block",3.04 %ID/g
same,tissue uptake at 1 h,"[2]; lung, CaSki tumor-bearing mice, 0.37 MBq i.v., gamma counting, mean, n = 4, read-out: Uptake in Lung",3.76 %ID/g
same,tissue uptake at 1 h,"[2]; lung, CaSki tumor-bearing mice, non-PEGylated A20FMDV2 100 μg injected 10 min before radiotracer, read-out: Uptake in Lung, 1 h Block",1.43 %ID/g
same,tissue uptake at 1 h,"[2]; muscle, CaSki tumor-bearing mice, 0.37 MBq i.v., gamma counting, mean, n = 4, read-out: Uptake in Muscle",1.23 %ID/g
same,tissue uptake at 1 h,"[2]; muscle, CaSki tumor-bearing mice, non-PEGylated A20FMDV2 100 μg injected 10 min before radiotracer, read-out: Uptake in Muscle, 1 h Block",0.43 %ID/g
same,tissue uptake at 1 h,"[2]; spleen, CaSki tumor-bearing mice, 0.37 MBq i.v., gamma counting, mean, n = 4, read-out: Uptake in Spleen",0.63 %ID/g
same,tissue uptake at 1 h,"[2]; spleen, CaSki tumor-bearing mice, non-PEGylated A20FMDV2 100 μg injected 10 min before radiotracer, read-out: Uptake in Spleen, 1 h Block",0.54 %ID/g
same,tissue uptake at 1 h,"[2]; tumor (CaSki xenograft), 0.37 MBq i.v., gamma counting, mean, n = 4, read-out: Tumor Uptake",1.63 ± 0.53 %ID/g
same,tissue uptake at 1 h,"[2]; tumor (CaSki xenograft), non-PEGylated A20FMDV2 100 μg injected 10 min before radiotracer, read-out: Tumor uptake, 1 h Block",0.67 ± 0.26 %ID/g
same,tissue uptake at 1 h,"[3]; blood, 0.37 MBq i.v., gamma counting, mean, n = 4, read-out: Uptake in Blood",0.27 %ID/g
same,tissue uptake at 1 h,"[3]; blood, non-PEGylated A20FMDV2 100 μg injected 10 min before radiotracer, read-out: Uptake in Blood, 1 h Block",0.27 %ID/g
same,tissue uptake at 1 h,"[3]; bone, 0.37 MBq i.v., gamma counting, mean, n = 4, read-out: Uptake in Bone",0.38 %ID/g
same,tissue uptake at 1 h,"[3]; bone, non-PEGylated A20FMDV2 100 μg injected 10 min before radiotracer, read-out: Uptake in Bone, 1 h Block",0.66 %ID/g
same,tissue uptake at 1 h,"[3]; heart, 0.37 MBq i.v., gamma counting, mean, n = 4, read-out: Uptake in Heart",1.9 %ID/g
same,tissue uptake at 1 h,"[3]; heart, non-PEGylated A20FMDV2 100 μg injected 10 min before radiotracer, read-out: Uptake in Heart, 1 h Block",0.27 %ID/g
same,tissue uptake at 1 h,"[3]; 0.37 MBq i.v., gamma counting, mean, n = 4, read-out: Tumor Uptake",3.86 ± 0.58 %ID/g
same,tissue uptake at 1 h,"[3]; kidney, 0.37 MBq i.v., gamma counting, mean, n = 4, read-out: Uptake in Kidney",105 ± 13.6 %ID/g
same,tissue uptake at 24 h,"[3]; kidney, 0.37 MBq i.v., read-out: Uptake in Kidney",28.6 ± 8.45 %ID/g
same,tissue uptake at 1 h,"[3]; kidney, non-PEGylated A20FMDV2 100 μg injected 10 min before radiotracer, read-out: Uptake in Kidney, 1 h Block",80.6 %ID/g
same,tissue uptake at 1 h,"[3]; liver, 0.37 MBq i.v., gamma counting, mean, n = 4, read-out: Uptake in Liver",1.94 %ID/g
same,tissue uptake at 1 h,"[3]; liver, non-PEGylated A20FMDV2 100 μg injected 10 min before radiotracer, read-out: Uptake in Liver, 1 h Block",1.68 %ID/g
same,tissue uptake at 1 h,"[3]; lung, 0.37 MBq i.v., gamma counting, mean, n = 4, read-out: Uptake in Lung",2.58 %ID/g
same,tissue uptake at 1 h,"[3]; lung, non-PEGylated A20FMDV2 100 μg injected 10 min before radiotracer, read-out: Uptake in Lung, 1 h Block",1.25 %ID/g
same,tissue uptake at 1 h,"[3]; muscle, 0.37 MBq i.v., gamma counting, mean, n = 4, read-out: Uptake in Muscle",1.13 %ID/g
same,tissue uptake at 1 h,"[3]; muscle, non-PEGylated A20FMDV2 100 μg injected 10 min before radiotracer, read-out: Uptake in Muscle, 1 h Block",0.28 %ID/g
same,tissue uptake at 1 h,"[3]; spleen, 0.37 MBq i.v., gamma counting, mean, n = 4, read-out: Uptake in Spleen",0.28 %ID/g
same,tissue uptake at 1 h,"[3]; spleen, non-PEGylated A20FMDV2 100 μg injected 10 min before radiotracer, read-out: Uptake in Spleen, 1 h Block",0.24 %ID/g
same,tissue uptake at 4 h,"[3]; tumor (BxPC-3 xenograft), 0.37 MBq i.v., 4 h p.i.",3.09 ± 0.77 %ID/g
same,tissue uptake at 24 h,"[3]; tumor (BxPC-3 xenograft), 0.37 MBq i.v., read-out: Tumor Uptake",2.45 ± 0.57 %ID/g
same,tissue uptake at 1 h,"[3]; tumor (BxPC-3 xenograft), non-PEGylated A20FMDV2 100 μg injected 10 min before radiotracer, read-out: Tumor uptake, 1 h Block",0.75 ± 0.09 %ID/g
